{"source": "patent US20030003482A1", "about": "(published 2003)", "binders": {"B1": {"name": "Human MRP8 (other)", "chain": "MLTELEKALNSIIDVYHKYSLIKGNFHAVYRDDLKKLLETECPQYIRKKGADVWFKELDINTDGAVNFQEFLILVIKMGVAAHKKSHEESHKE", "notes": "Natural protein in human wound fluid and wound biopsy tissue (Western blot); also called calgranulin A"}}, "target": "T1, Human MRP14 (Homo sapiens, UniProt P06702 1-114, limits assumed)", "T1 sequence": "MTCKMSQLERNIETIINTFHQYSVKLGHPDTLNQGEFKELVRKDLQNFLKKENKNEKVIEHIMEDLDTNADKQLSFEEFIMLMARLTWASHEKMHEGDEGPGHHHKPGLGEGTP", "assay": "statement within the sandwich ELISA example (Example 5)", "protocol": "In order to determine the amount of MRP8/MRP14 polypeptide in various wound fluids, wound fluid samples from patients suffering from chronic diabetic wound were collected, venous ulcers as well as wound fluids from wounds of healthy persons. Wound fluids were isolated as described in Example 2 by means of drainage. For the determination of MRP8/MRP14 content, Maxi-Sorb Immunoplates (96-well, Nunc, Wiesbaden, Germany) were coated with polyclonal rabbit antisera against MRP14 by incubating each well overnight at 4° C. with 50 μl of coating solution (anti-MRP14 antibody, 2 μg/ml, in 0.1 M NaHCO3, pH 9.5). […] After removal of the blocking reagent, 50 μl of diluted wound fluid samples (buffer A: PBS containing 0.1% Tween 20) were added and allowed to react with the immobilized capture antibody for 1 h at 37° C. and then washed (3×) with buffer A. Bound antigen was detected by incubation (1 h, 37° C.) of each well with 50 μl of a biotinylated monoclonal antibody against MRP14 (clone S36.48, Dianova, 125 ng/ml antibody in buffer A). […] MRP8 and MRP14 spontaneously form noncovalently associated complexes to a quantitative extent which are detected by the ELISA system. […] The total polypeptide content per probe was determined using the BCA assay.", "data": [{"binder": "B1", "values": [{"measurement": "binding result", "result": "binds"}]}]}
